What was measured:
[1] = test system: T1, VEGF-165 (VEGF-A) (Homo sapiens); assay: flow; settings: 2'-F
T1 sequence: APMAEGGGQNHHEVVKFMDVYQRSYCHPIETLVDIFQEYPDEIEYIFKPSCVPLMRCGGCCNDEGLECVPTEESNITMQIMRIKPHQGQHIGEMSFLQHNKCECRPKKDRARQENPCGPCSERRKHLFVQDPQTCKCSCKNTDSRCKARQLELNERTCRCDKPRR

[2] = molecular target: T2, Angiopoietin-2 (Ang2) (Homo sapiens) (UniProt O15123); assay: flow; settings: 2'-F
T2 sequence: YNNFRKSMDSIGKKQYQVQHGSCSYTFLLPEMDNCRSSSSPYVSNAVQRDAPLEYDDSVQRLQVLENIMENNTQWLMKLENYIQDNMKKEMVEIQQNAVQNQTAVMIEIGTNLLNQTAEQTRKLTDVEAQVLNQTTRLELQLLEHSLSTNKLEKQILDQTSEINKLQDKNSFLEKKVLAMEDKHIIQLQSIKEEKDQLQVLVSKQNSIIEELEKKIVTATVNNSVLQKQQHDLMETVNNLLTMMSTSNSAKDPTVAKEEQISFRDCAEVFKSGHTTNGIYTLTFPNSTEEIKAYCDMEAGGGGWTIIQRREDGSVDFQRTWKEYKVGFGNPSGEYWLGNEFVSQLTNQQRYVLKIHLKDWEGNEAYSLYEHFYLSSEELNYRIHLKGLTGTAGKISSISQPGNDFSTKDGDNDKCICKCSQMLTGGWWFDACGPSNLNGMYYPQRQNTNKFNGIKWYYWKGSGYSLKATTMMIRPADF

[3] = internal hexaethylene glycol (H) linker in Ang2 part
[4] = OOOO linker replacing UUUUA after UGCAUGCA
[5] = hexaethylene glycol (H) linker replacing UUUUA after UGCAUGCA
[6] = OO linker replacing UUUUA after UGCAUGCA

UGCAUGCAUUUUACCAGUGAGUCGGAUCUCCGCAUAGAUAAGCCAACAAAUUCUCUGUUAGUAUUUUCUGCG [AMSB107.24]
Kd [1, 3]: 0.209 nM
Kd [2, 3]: 1.78 nM

UGCAUGCAUUUUACCAGUGAGUCGGAUCUCCGCAUAGAUAAGCCAACAAACGUACAUUCUCUGUUAGUAUUUUCUGCG [AMSB107.23]
Kd ([1]; 5' hexaethylene glycol (H)): 0.049 nM
Kd ([2]; 5' hexaethylene glycol (H)): 0.084 nM

UGCAUGCAUUUUACCAGUGAGUCGGAUCUCCGCAUAGAUAAGCCAACAAACGUUCUCUGUUAGUAUUUUCUGCG [AMSB107.25]
Kd [1, 3]: 0.224 nM
Kd [2, 3]: 1.41 nM

UGCAUGCACCAGUGAGUCGGAUCUCCGCAUAGAUAAGCCAACAAACGUACAUUCUCUGUUAGUAUUUUCUGCG [AMSB107.27]
Kd [1, 4]: 0.059 nM
Kd [2, 4]: 0.079 nM

UGCAUGCACCAGUGAGUCGGAUCUCCGCAUAGAUAAGCCAACAAACGUACAUUCUCUGUUAGUAUUUUCUGCG [AMSB107.22]
Kd [1, 5]: 0.055 nM
Kd [2, 5]: 0.098 nM

UGCAUGCACCAGUGAGUCGGAUCUCCGCAUAGAUAAGCCAACAAACGUACAUUCUCUGUUAGUAUUUUCUGCG [AMSB107.26]
Kd [1, 6]: 0.056 nM
Kd [2, 6]: 0.076 nM

— US20230095004
